Reference: patent US20190300616A1

Experiments:
[1] = target: human wild-type IL13Rα2 expressed on the cell surface (human) (UniProt Q14627); test: flow cytometry (APC-A), N10 glioma cells
[2] = target: human wild-type IL13Rα2 expressed on the cell surface (human) (UniProt Q14627); test: flow cytometry (APC-A), N10 glioma cells pre-incubated with 10x excess rhIL13, then mIgG
[3] = target: recombinant human IL13Rα2hFc chimera (human) (UniProt Q14627); test: SPR, Biacore 3000; mAb immobilized, rhIL13Rα2 injected; 1:1 model
Sequence of recombinant human IL13Rα2hFc chimera (human) (Q14627 27-343 limits assumed, stated change not applied): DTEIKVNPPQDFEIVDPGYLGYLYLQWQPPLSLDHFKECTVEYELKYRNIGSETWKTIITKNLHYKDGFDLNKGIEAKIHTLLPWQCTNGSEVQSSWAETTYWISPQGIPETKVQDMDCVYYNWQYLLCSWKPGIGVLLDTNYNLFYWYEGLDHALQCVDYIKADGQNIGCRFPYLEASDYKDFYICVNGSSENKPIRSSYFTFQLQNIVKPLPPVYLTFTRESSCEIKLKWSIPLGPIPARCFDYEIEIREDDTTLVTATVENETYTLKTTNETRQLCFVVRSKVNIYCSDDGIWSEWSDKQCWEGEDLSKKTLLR

[4] = target: recombinant human IL13Rα2hFc chimera (human) (UniProt Q14627); test: plate-bound ELISA on rhIL13Rα2hFc
[5] = target: Pngase F-treated rhIL13Rα2hFc (human) (UniProt Q14627); test: plate-bound ELISA, Pngase F-treated rhIL13Rα2hFc
Sequence of Pngase F-treated rhIL13Rα2hFc (human) (Q14627 27-343 limits assumed): as the sequence (Q14627 27-343 limits assumed, stated change not applied) above

Sequence of human wild-type IL13Rα2 expressed on the cell surface (human) (Q14627 27-380): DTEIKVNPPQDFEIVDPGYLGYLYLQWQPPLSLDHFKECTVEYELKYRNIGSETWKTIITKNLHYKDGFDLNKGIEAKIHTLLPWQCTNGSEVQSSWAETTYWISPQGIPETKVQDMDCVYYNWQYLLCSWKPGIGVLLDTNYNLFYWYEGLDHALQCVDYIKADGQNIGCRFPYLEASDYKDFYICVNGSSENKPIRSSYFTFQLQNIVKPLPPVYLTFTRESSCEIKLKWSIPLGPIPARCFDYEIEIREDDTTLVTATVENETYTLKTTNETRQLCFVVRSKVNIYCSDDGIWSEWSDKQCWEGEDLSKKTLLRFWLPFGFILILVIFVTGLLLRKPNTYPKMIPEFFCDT

Row | % positive cells [1] | % positive cells [2] | Kd [3] | koff [3] | kon [3] | EC50 (read off the curve) [4] | percent decrease of binding against untreated protein [5] | Substance
1 | 1.9% | 0.9% | – | – | – | – | – | mIgG (antibody)
2 | – | – | 46.1 nM | 0.00499 s⁻¹ | 108000 M⁻¹ s⁻¹ | 0.2 µg/mL | – | monoclonal antibody to IL13Rα2 (clone B-D13)
3 | – | – | 104 nM | 0.00231 s⁻¹ | 22300 M⁻¹ s⁻¹ | – | 80% | mAb to IL13Rα2 (clone 83807) (antibody)
